Reference: US20240270846A1 (published 2024)

B1: CE115HA000/GLS3000 P95A one-arm antibody (antibody, human IgG1, kappa, L234A L235A, N297A, name in Kabat numbering)
heavy: QVQLVESGGGVVQPGRSLRLSCAASGFTFSNAWMHWVRQAPGKGLEWVAQIKAKSNNYATYYAESVKGRFTISRDDSKNSLYLQMNSLKTEDTAVYYCRYVHYGAYYGVDAWGQGTTVTVSSASTKGPSVFPLAPSSKSTSGGTAALGCLVKDYFPEPVTVSWNSGALTSGVHTFPAVLQSSGLYSLSSVVTVPSSSLGTQTYICNVNHKPSNTKVDKKVEPKSCDKTHTCPPCPAPEAAGGPSVFLFPPKPKDTLMISRTPEVTCVVVDVSHEDPEVKFNWYVDGVEVHNAKTKPREEQYASTYRVVSVLTVLHQDWLNGKEYKCKVSNKALPAPIEKTISKAKGQPREPQVYTLPPSRCELTKNQVSLSCAVKGFYPSDIAVEWESNGQPENNYKTTPPVLDSDGSFFLVSKLTVDKSRWQQGNVFSCSVMHEALHNHYTQKSLSLSPDYKDDDDK
chain: EPKSSDKTHTCPPCPAPELLGGPSVFLFPPKPKDTLMISRTPEVTCVVVDVSHEDPEVKFNWYVDGVEVHNAKTKPREEQYNSTYRVVSVLTVLHQDWLNGKEYKCKVSNKALPAPIEKTISKAKGQPREPQVCTLPPSRDELTKNQVSLWCLVKGFYPSDIAVEWESNGQPENNYKTTPPVLDSDGSFFLYSKLTVDKSRWQQGNVFSCSVMHEALHNRYTQKSLSLSP
light: DIVMTQSPLSLPVTPGEPASISCRSSQSLVHSNRNTYLHWYQQKPGQAPRLLIYKVSNRFSGVPDRFSGSGSGTDFTLKISRVEAEDVGVYYCGQGTQVAYTFGQGTKLEIKRTVAAPSVFIFPPSDEQLKSGTASVVCLLNNFYPREAKVQWKVDNALQSGNSQESVTEQDSKDSTYSLSSTLTLSKADYEKHKVYACEVTHQGLSSPVTKSFNRGEC
notes: one-arm IgG1
B2: CE115HA000/GLS3000 P95E one-arm antibody (antibody, human IgG1, kappa, L234A L235A, N297A, name in Kabat numbering)
heavy: QVQLVESGGGVVQPGRSLRLSCAASGFTFSNAWMHWVRQAPGKGLEWVAQIKAKSNNYATYYAESVKGRFTISRDDSKNSLYLQMNSLKTEDTAVYYCRYVHYGAYYGVDAWGQGTTVTVSSASTKGPSVFPLAPSSKSTSGGTAALGCLVKDYFPEPVTVSWNSGALTSGVHTFPAVLQSSGLYSLSSVVTVPSSSLGTQTYICNVNHKPSNTKVDKKVEPKSCDKTHTCPPCPAPEAAGGPSVFLFPPKPKDTLMISRTPEVTCVVVDVSHEDPEVKFNWYVDGVEVHNAKTKPREEQYASTYRVVSVLTVLHQDWLNGKEYKCKVSNKALPAPIEKTISKAKGQPREPQVYTLPPSRCELTKNQVSLSCAVKGFYPSDIAVEWESNGQPENNYKTTPPVLDSDGSFFLVSKLTVDKSRWQQGNVFSCSVMHEALHNHYTQKSLSLSPDYKDDDDK
chain: EPKSSDKTHTCPPCPAPELLGGPSVFLFPPKPKDTLMISRTPEVTCVVVDVSHEDPEVKFNWYVDGVEVHNAKTKPREEQYNSTYRVVSVLTVLHQDWLNGKEYKCKVSNKALPAPIEKTISKAKGQPREPQVCTLPPSRDELTKNQVSLWCLVKGFYPSDIAVEWESNGQPENNYKTTPPVLDSDGSFFLYSKLTVDKSRWQQGNVFSCSVMHEALHNRYTQKSLSLSP
light: DIVMTQSPLSLPVTPGEPASISCRSSQSLVHSNRNTYLHWYQQKPGQAPRLLIYKVSNRFSGVPDRFSGSGSGTDFTLKISRVEAEDVGVYYCGQGTQVEYTFGQGTKLEIKRTVAAPSVFIFPPSDEQLKSGTASVVCLLNNFYPREAKVQWKVDNALQSGNSQESVTEQDSKDSTYSLSSTLTLSKADYEKHKVYACEVTHQGLSSPVTKSFNRGEC
notes: one-arm IgG1
B3: CE115HA000/GLS3000 P95L one-arm antibody (antibody, human IgG1, kappa, L234A L235A, N297A, name in Kabat numbering)
heavy: QVQLVESGGGVVQPGRSLRLSCAASGFTFSNAWMHWVRQAPGKGLEWVAQIKAKSNNYATYYAESVKGRFTISRDDSKNSLYLQMNSLKTEDTAVYYCRYVHYGAYYGVDAWGQGTTVTVSSASTKGPSVFPLAPSSKSTSGGTAALGCLVKDYFPEPVTVSWNSGALTSGVHTFPAVLQSSGLYSLSSVVTVPSSSLGTQTYICNVNHKPSNTKVDKKVEPKSCDKTHTCPPCPAPEAAGGPSVFLFPPKPKDTLMISRTPEVTCVVVDVSHEDPEVKFNWYVDGVEVHNAKTKPREEQYASTYRVVSVLTVLHQDWLNGKEYKCKVSNKALPAPIEKTISKAKGQPREPQVYTLPPSRCELTKNQVSLSCAVKGFYPSDIAVEWESNGQPENNYKTTPPVLDSDGSFFLVSKLTVDKSRWQQGNVFSCSVMHEALHNHYTQKSLSLSPDYKDDDDK
chain: EPKSSDKTHTCPPCPAPELLGGPSVFLFPPKPKDTLMISRTPEVTCVVVDVSHEDPEVKFNWYVDGVEVHNAKTKPREEQYNSTYRVVSVLTVLHQDWLNGKEYKCKVSNKALPAPIEKTISKAKGQPREPQVCTLPPSRDELTKNQVSLWCLVKGFYPSDIAVEWESNGQPENNYKTTPPVLDSDGSFFLYSKLTVDKSRWQQGNVFSCSVMHEALHNRYTQKSLSLSP
light: DIVMTQSPLSLPVTPGEPASISCRSSQSLVHSNRNTYLHWYQQKPGQAPRLLIYKVSNRFSGVPDRFSGSGSGTDFTLKISRVEAEDVGVYYCGQGTQVLYTFGQGTKLEIKRTVAAPSVFIFPPSDEQLKSGTASVVCLLNNFYPREAKVQWKVDNALQSGNSQESVTEQDSKDSTYSLSSTLTLSKADYEKHKVYACEVTHQGLSSPVTKSFNRGEC
notes: one-arm IgG1
B4: CE115HA000/GLS3000 P95D one-arm antibody (antibody, human IgG1, kappa, L234A L235A, N297A, name in Kabat numbering)
heavy: QVQLVESGGGVVQPGRSLRLSCAASGFTFSNAWMHWVRQAPGKGLEWVAQIKAKSNNYATYYAESVKGRFTISRDDSKNSLYLQMNSLKTEDTAVYYCRYVHYGAYYGVDAWGQGTTVTVSSASTKGPSVFPLAPSSKSTSGGTAALGCLVKDYFPEPVTVSWNSGALTSGVHTFPAVLQSSGLYSLSSVVTVPSSSLGTQTYICNVNHKPSNTKVDKKVEPKSCDKTHTCPPCPAPEAAGGPSVFLFPPKPKDTLMISRTPEVTCVVVDVSHEDPEVKFNWYVDGVEVHNAKTKPREEQYASTYRVVSVLTVLHQDWLNGKEYKCKVSNKALPAPIEKTISKAKGQPREPQVYTLPPSRCELTKNQVSLSCAVKGFYPSDIAVEWESNGQPENNYKTTPPVLDSDGSFFLVSKLTVDKSRWQQGNVFSCSVMHEALHNHYTQKSLSLSPDYKDDDDK
chain: EPKSSDKTHTCPPCPAPELLGGPSVFLFPPKPKDTLMISRTPEVTCVVVDVSHEDPEVKFNWYVDGVEVHNAKTKPREEQYNSTYRVVSVLTVLHQDWLNGKEYKCKVSNKALPAPIEKTISKAKGQPREPQVCTLPPSRDELTKNQVSLWCLVKGFYPSDIAVEWESNGQPENNYKTTPPVLDSDGSFFLYSKLTVDKSRWQQGNVFSCSVMHEALHNRYTQKSLSLSP
light: DIVMTQSPLSLPVTPGEPASISCRSSQSLVHSNRNTYLHWYQQKPGQAPRLLIYKVSNRFSGVPDRFSGSGSGTDFTLKISRVEAEDVGVYYCGQGTQVDYTFGQGTKLEIKRTVAAPSVFIFPPSDEQLKSGTASVVCLLNNFYPREAKVQWKVDNALQSGNSQESVTEQDSKDSTYSLSSTLTLSKADYEKHKVYACEVTHQGLSSPVTKSFNRGEC
notes: one-arm IgG1
B5: CE115HA000/GLS3000 Q90A one-arm antibody (antibody, human IgG1, kappa, L234A L235A, N297A, name in Kabat numbering)
heavy: QVQLVESGGGVVQPGRSLRLSCAASGFTFSNAWMHWVRQAPGKGLEWVAQIKAKSNNYATYYAESVKGRFTISRDDSKNSLYLQMNSLKTEDTAVYYCRYVHYGAYYGVDAWGQGTTVTVSSASTKGPSVFPLAPSSKSTSGGTAALGCLVKDYFPEPVTVSWNSGALTSGVHTFPAVLQSSGLYSLSSVVTVPSSSLGTQTYICNVNHKPSNTKVDKKVEPKSCDKTHTCPPCPAPEAAGGPSVFLFPPKPKDTLMISRTPEVTCVVVDVSHEDPEVKFNWYVDGVEVHNAKTKPREEQYASTYRVVSVLTVLHQDWLNGKEYKCKVSNKALPAPIEKTISKAKGQPREPQVYTLPPSRCELTKNQVSLSCAVKGFYPSDIAVEWESNGQPENNYKTTPPVLDSDGSFFLVSKLTVDKSRWQQGNVFSCSVMHEALHNHYTQKSLSLSPDYKDDDDK
chain: EPKSSDKTHTCPPCPAPELLGGPSVFLFPPKPKDTLMISRTPEVTCVVVDVSHEDPEVKFNWYVDGVEVHNAKTKPREEQYNSTYRVVSVLTVLHQDWLNGKEYKCKVSNKALPAPIEKTISKAKGQPREPQVCTLPPSRDELTKNQVSLWCLVKGFYPSDIAVEWESNGQPENNYKTTPPVLDSDGSFFLYSKLTVDKSRWQQGNVFSCSVMHEALHNRYTQKSLSLSP
light: DIVMTQSPLSLPVTPGEPASISCRSSQSLVHSNRNTYLHWYQQKPGQAPRLLIYKVSNRFSGVPDRFSGSGSGTDFTLKISRVEAEDVGVYYCGAGTQVPYTFGQGTKLEIKRTVAAPSVFIFPPSDEQLKSGTASVVCLLNNFYPREAKVQWKVDNALQSGNSQESVTEQDSKDSTYSLSSTLTLSKADYEKHKVYACEVTHQGLSSPVTKSFNRGEC
notes: one-arm IgG1
B6: CE115HA000/GLS3000 P95G one-arm antibody (antibody, human IgG1, kappa, L234A L235A, N297A, name in Kabat numbering)
heavy: QVQLVESGGGVVQPGRSLRLSCAASGFTFSNAWMHWVRQAPGKGLEWVAQIKAKSNNYATYYAESVKGRFTISRDDSKNSLYLQMNSLKTEDTAVYYCRYVHYGAYYGVDAWGQGTTVTVSSASTKGPSVFPLAPSSKSTSGGTAALGCLVKDYFPEPVTVSWNSGALTSGVHTFPAVLQSSGLYSLSSVVTVPSSSLGTQTYICNVNHKPSNTKVDKKVEPKSCDKTHTCPPCPAPEAAGGPSVFLFPPKPKDTLMISRTPEVTCVVVDVSHEDPEVKFNWYVDGVEVHNAKTKPREEQYASTYRVVSVLTVLHQDWLNGKEYKCKVSNKALPAPIEKTISKAKGQPREPQVYTLPPSRCELTKNQVSLSCAVKGFYPSDIAVEWESNGQPENNYKTTPPVLDSDGSFFLVSKLTVDKSRWQQGNVFSCSVMHEALHNHYTQKSLSLSPDYKDDDDK
chain: EPKSSDKTHTCPPCPAPELLGGPSVFLFPPKPKDTLMISRTPEVTCVVVDVSHEDPEVKFNWYVDGVEVHNAKTKPREEQYNSTYRVVSVLTVLHQDWLNGKEYKCKVSNKALPAPIEKTISKAKGQPREPQVCTLPPSRDELTKNQVSLWCLVKGFYPSDIAVEWESNGQPENNYKTTPPVLDSDGSFFLYSKLTVDKSRWQQGNVFSCSVMHEALHNRYTQKSLSLSP
light: DIVMTQSPLSLPVTPGEPASISCRSSQSLVHSNRNTYLHWYQQKPGQAPRLLIYKVSNRFSGVPDRFSGSGSGTDFTLKISRVEAEDVGVYYCGQGTQVGYTFGQGTKLEIKRTVAAPSVFIFPPSDEQLKSGTASVVCLLNNFYPREAKVQWKVDNALQSGNSQESVTEQDSKDSTYSLSSTLTLSKADYEKHKVYACEVTHQGLSSPVTKSFNRGEC
notes: one-arm IgG1

Biological target: T1, CD3 epsilon homodimer protein (UniProt P07766 23-126)
T1 construct: also called CD3 (CD3 epsilon)
T1 sequence (P07766 23-126): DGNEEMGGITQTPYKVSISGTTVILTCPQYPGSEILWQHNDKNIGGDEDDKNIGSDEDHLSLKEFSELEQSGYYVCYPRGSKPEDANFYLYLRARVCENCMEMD
Test: SPR (Biacore T200), CD3e homodimer on CM4 chip, antibody as analyte; KD ratio vs unaltered GLS3000;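 note: CD3 epsilon homodimer amine-coupled to the sensor surface, antibodies injected as analyte at 25 °C with HBS-EP+ running buffer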
Description: An appropriate amount of CD3 epsilon homodimer protein was immobilized onto Sensor chip CM4 (GE Healthcare Japan Corp.) by the amine coupling method. Then, the antibody having an appropriate concentration was injected thereto as an analyte and allowed to interact with the CD3 epsilon homodimer protein on the sensor chip. Then, the sensor chip was regenerated by the injection of 10 mmol/L glycine-HCl (pH 1.5). The assay was conducted at 25 degrees C., and HBS-EP+(GE Healthcare Japan Corp.) was used as a running buffer. […] Each parameter was calculated using Biacore T200 Evaluation Software (GE Healthcare Japan Corp.).
Specifically, when the amount of the GLS3000-containing antibody bound was defined as X and the amount of the L chain one-amino acid altered form bound was defined as Y, a value of Z (ratio of amounts bound)=Y/X was used.

Going from B1 to B2, the “KD ratio to GLS3000” value rises from 0.87 ratio to 1.01 ratio.

Compared with B3, B4 is lower in “KD ratio to GLS3000” value: 11.7 ratio for the first, 2.37 ratio for the second.

Going from B5 to B6, the “KD ratio to GLS3000” value rises from 0.89 ratio to 1.94 ratio.
